In US20180305460A1 (Teva, published 2018):
Read-outs that look alike come from different tables or passages of the source. One block for each binder: values may come before it.

Assays:
[1] = target: Human CD38 (soluble analyte in the SPR assay) (human, UniProt P28907 43-300); assay: SPR (Biacore), antibody captured on Protein A from supernatant, CD38 injected; weakest KD among the separate SPR experiments
[2] = target: T1, interferon-alpha/β receptor (IFNAR) (human, UniProt P17181); assay: cell-based or functional assay
T1 sequence (receptor (subunits not named in the filing), looked up): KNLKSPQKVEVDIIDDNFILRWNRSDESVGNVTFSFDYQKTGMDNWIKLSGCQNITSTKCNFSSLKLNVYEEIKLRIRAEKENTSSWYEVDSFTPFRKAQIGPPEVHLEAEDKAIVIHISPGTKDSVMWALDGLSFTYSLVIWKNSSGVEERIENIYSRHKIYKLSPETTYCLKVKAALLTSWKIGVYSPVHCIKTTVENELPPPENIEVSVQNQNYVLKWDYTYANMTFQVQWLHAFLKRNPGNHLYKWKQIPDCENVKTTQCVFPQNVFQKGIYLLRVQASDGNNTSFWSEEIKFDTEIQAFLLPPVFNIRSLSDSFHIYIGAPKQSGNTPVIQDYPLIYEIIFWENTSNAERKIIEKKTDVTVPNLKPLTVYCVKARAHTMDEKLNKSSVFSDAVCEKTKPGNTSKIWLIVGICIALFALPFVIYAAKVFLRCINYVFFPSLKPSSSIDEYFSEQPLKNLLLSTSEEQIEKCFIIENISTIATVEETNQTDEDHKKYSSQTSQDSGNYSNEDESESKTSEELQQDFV

[3] = target: T2, Human CD38 on CD38-positive myeloma cells (ARP-1, H929) (human, UniProt P28907 43-300); assay: flow cytometry, ARP-1 cells (CD38-positive)
T2 construct: Endogenous CD38 on the human myeloma cell lines ARP-1 and H929, used in flow cytometry; also called NCI-H929

[4] = target: T3, Human CD38 (human, UniProt P28907 43-300); assay: SPR (Biacore), antibody from supernatant captured on Protein A, human CD38 injected, 1:1 fit
[5] = target: T2, Human CD38 on CD38-positive myeloma …; assay: flow cytometry, ARP-1 cells (CD38-positive); remark: listed apart in the source
[6] = target: T3, Human CD38; assay: SPR (Biacore), antibody from supernatant captured on Protein A, human CD38 injected, 1:1 fit; remark: listed apart in the source
[7] = target: T3, Human CD38; assay: as above; remark: listed apart in the source
[8] = target: T3, Human CD38; assay: as above; remark: listed apart in the source
[9] = target: T2, Human CD38 on CD38-positive myeloma …; assay: flow cytometry, ARP-1 cells (CD38-positive); remark: listed apart in the source
[10] = target: T3, Human CD38; assay: SPR (Biacore), antibody from supernatant captured on Protein A, human CD38 injected, 1:1 fit; remark: listed apart in the source
[11] = target: T3, Human CD38; assay: SPR (Biacore), antibody from supernatant captured on Protein A, human CD38 injected, 1:1 fit; separate experiment in which X02.1 gave 2.7 × 10^-8
[12] = target: T2, Human CD38 on CD38-positive myeloma …; assay: flow cytometry, ARP-1 cells (CD38-positive); remark: listed apart in the source
[13] = target: T3, Human CD38; assay: SPR (Biacore), antibody from supernatant captured on Protein A, human CD38 injected, 1:1 fit; remark: listed apart in the source

EC50 [5]: 6.3 µg/mL | Kd [6]: 0.27 nM
B4: X02.85 (antibody, V domains shown)
VH: QLQLQESGPGLVKPSETLSLTCTVSGGSISSSSYYWSWIRQHPGKGLEWIGYIYYSGSTNYNPSLKSRVTISVDTLKNQISLRLTSVTAADTAVYYCARVGGAGGWPMDVWGQGTTVTVSS
VL: QAVLTQPASLSASPGESARLTCTLPSDINVRYYNIYWYQQKPGSPPRYLLYYYSDSHKGQGSGVPSRFSGSKSTNSGILLISGLQSEDEADYYCMTWSSNGSGVFGGGTQLTVLG
notes: IgG4 S228P with the X02.1 VH; VL residues D(L66A) and V(L66B) of A02.1 are deleted

Kd [8]: 0.0685 nM
B6: X02.74 (antibody, human IgG4 S228P, V domains shown)
VH: QLQLQESGPGLVKPSETLSLTCTVSGGSISSSSYYWSWIRQHPGKGLEWIGYIYYSGSTNYNPSLKSRVTISVDTLKNQISLRLTSVTAADTAVYYCARVGGAGGWPLEVWGQGTTVTVSS
VL: QAVLTQPASLSASPGESARLTCTLPSDINVRYYNIYWYQQKPGSPPRYLLYYYSDSHKGQGSGVPSRFSGSKDVSTNSGILLISGLQSEDEADYYCMTWSSNGSGVFGGGTQLTVLG
notes: IgG4 S228P; VH M(100C)L, D101E relative to X02.1

EC50 [9]: 9.4 µg/mL | Kd [10]: 1.28 nM
B7: X02.103 (antibody, V domains shown)
VH: QLQLQESGPGLVKPSETLSLTCTVSGGSISSSSYYWSWIRQHPGKGLEWIGYIYYSGSTNYNPSLKSRVTISVDTLKNQISLRLTSVTAADTAVYYCARVGGAGGWPMDVWGQGTTVTVSS
VL: QAVLTQPASLSASPGESARLTCTLPSDINVRYYNIYWYQQKPGSPPRYLLYYYSDSHKGQGSGVPSRFSGSKDVSTNTGILLISGLQSEDEADYYCMTWSSNGSGVFGGGTQLTVLG
notes: IgG4 S228P with the X02.1 VH; VL S70T relative to A02.1

EC50 [5]: 8.2 µg/mL | Kd [6]: 2.69 nM
B8: X02.83 (antibody)
heavy: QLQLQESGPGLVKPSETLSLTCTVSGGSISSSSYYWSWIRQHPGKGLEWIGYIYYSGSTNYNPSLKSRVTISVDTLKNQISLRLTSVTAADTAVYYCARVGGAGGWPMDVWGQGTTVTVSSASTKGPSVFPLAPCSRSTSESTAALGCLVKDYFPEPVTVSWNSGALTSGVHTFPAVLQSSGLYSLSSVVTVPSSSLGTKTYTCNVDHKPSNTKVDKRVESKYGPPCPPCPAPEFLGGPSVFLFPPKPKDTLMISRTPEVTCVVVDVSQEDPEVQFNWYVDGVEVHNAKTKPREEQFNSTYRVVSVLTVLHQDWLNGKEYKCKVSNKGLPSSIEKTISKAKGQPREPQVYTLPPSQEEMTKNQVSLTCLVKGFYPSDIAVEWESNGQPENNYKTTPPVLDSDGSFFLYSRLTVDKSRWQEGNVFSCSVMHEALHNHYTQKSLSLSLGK
VL: QAVLTQPASLSASPGASARLTCTLPSDINVRYYNIYWYQQKPGSPPRYLLYYYSDSHKGQGSGVPSRFSGSKDVSTNSGILLISGLQSEDEADYYCMTWSSNGSGVFGGGTQLTVLG
notes: IgG4 S228P with the X02.1 VH; VL E17A relative to A02.1

Kd [8]: 0.000158 nM
B9: X02.76 (antibody, human IgG4 S228P)
heavy: not shown
VL: QAVLTQPASLSASPGESARLTCTLPSDINVRYYNIYWYQQKPGSPPRYLLYYYSDSHKGQGSGVPSRFSGSKDVSTNSGILLISGLQSEDEADYYCMTWSSNGSGVFGGGTQLTVLG
notes: IgG4 S228P; VH M(100C)L relative to X02.1

EC50 [9]: 20.4 µg/mL | Kd [10]: 0.12 nM
B10: X02.102 (antibody, V domains shown)
VH: QLQLQESGPGLVKPSETLSLTCTVSGGSISSSSYYWSWIRQHPGKGLEWIGYIYYSGSTNYNPSLKSRVTISVDTLKNQISLRLTSVTAADTAVYYCARVGGAGGWPMDVWGQGTTVTVSS
VL: QAVLTQPASLSASPGESARLTCTLPSDINVRYYNIYWYQQKPGSPPRYLLYYYSDSHKGQGSGVPSRFSGSKDVSANSGILLISGLQSEDEADYYCMTWSSNGSGVFGGGTQLTVLG
notes: IgG4 S228P with the X02.1 VH; VL T68A relative to A02.1

Kd [8]: 0.00911 nM
B11: X02.77 (antibody, human IgG4 S228P)
heavy: not shown
VL: QAVLTQPASLSASPGESARLTCTLPSDINVRYYNIYWYQQKPGSPPRYLLYYYSDSHKGQGSGVPSRFSGSKDVSTNSGILLISGLQSEDEADYYCMTWSSNGSGVFGGGTQLTVLG
notes: IgG4 S228P; VH D101E relative to X02.1

EC50 [9]: 13.7 µg/mL | Kd [10]: 0.0289 nM
B13: X02.101 (antibody, V domains shown)
VH: QLQLQESGPGLVKPSETLSLTCTVSGGSISSSSYYWSWIRQHPGKGLEWIGYIYYSGSTNYNPSLKSRVTISVDTLKNQISLRLTSVTAADTAVYYCARVGGAGGWPMDVWGQGTTVTVSS
VL: QAVLTQPASLSASPGESARLTCTLPSDINVRYYNIYWYQQKPGSPPRYLLYYYSDSHKGQGSGVPSRFSGSKDASTNSGILLISGLQSEDEADYYCMTWSSNGSGVFGGGTQLTVLG
notes: IgG4 S228P with the X02.1 VH; VL V(66B)A relative to A02.1

EC50 [9]: 30 µg/mL | Kd [10]: 0.25 nM
B14: X02.96 (antibody)
heavy: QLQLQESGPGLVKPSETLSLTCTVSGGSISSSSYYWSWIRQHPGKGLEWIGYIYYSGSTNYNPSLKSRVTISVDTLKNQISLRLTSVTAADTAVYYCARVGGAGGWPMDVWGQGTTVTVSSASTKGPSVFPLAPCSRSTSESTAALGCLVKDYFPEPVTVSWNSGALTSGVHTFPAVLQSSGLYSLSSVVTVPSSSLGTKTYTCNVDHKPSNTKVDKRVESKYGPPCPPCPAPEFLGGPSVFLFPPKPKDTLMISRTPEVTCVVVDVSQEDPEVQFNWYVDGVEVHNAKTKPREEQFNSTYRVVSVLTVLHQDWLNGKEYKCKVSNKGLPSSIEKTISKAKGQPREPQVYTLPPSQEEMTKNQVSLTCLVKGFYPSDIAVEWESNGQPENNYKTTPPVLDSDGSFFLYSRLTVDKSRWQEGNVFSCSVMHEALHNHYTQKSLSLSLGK
VL: QAVLTQPPSLSASPGESARLTCTLPSDINVRYYNIYWYQQKPGSPPRYLLYYYSDSHKGQGSGVPSRFSGSKDVSTNSGILLISGLQSEDEADYYCMTWSSNGSGVFGGGTQLTVLG
notes: IgG4 S228P with the X02.1 VH; VL A8P relative to A02.1

Kd [11]: 24.7 nM
B15: X02.107 (antibody)
heavy: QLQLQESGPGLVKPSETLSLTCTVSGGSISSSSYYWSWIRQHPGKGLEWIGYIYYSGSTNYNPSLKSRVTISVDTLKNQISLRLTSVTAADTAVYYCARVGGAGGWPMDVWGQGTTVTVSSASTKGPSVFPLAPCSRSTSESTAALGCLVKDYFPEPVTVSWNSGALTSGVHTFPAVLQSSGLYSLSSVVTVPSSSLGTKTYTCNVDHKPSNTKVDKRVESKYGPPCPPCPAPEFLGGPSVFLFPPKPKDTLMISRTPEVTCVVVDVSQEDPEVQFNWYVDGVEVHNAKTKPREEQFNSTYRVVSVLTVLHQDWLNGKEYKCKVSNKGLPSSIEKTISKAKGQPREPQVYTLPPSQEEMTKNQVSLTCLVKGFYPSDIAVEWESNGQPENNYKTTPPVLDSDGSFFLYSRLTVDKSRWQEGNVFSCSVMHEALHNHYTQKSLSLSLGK
VL: QAVLTQPASLSASPGESARLTCTLPSDINVRYYNIYWYQQKPGSPPRYLLYYYSDSHKGQGSGVPSRFSGSKDVSTNSGILLISGLQSEDIATYYCMTWSSNGSGVFGGGTQLTVLG
notes: IgG4 S228P with the X02.1 VH; VL E83I, D85T relative to A02.1

EC50 [5]: 3.8 µg/mL
B16: X02.82 (antibody, V domains shown)
VH: QLQLQESGPGLVKPSETLSLTCTVSGGSISSSSYYWSWIRQHPGKGLEWIGYIYYSGSTNYNPSLKSRVTISVDTLKNQISLRLTSVTAADTAVYYCARVGGAGGWPMDVWGQGTTVTVSS
VL: QAVLTQPASLSASPGESARLTCTLPSDINVRYYNIYWYQQKPGSPPRYLLRYYSDSHKGQGSGVPSRFSGSKDVSTNSGILLISGLQSEDEADYYCMTWSSNGSGVFGGGTQLTVLG
notes: IgG4 S228P with the X02.1 VH; VL Y49R relative to A02.1

EC50 [12]: 4.9 µg/mL | Kd [13]: 0.638 nM
B20: X02.75 (antibody, human IgG4 S228P)
heavy: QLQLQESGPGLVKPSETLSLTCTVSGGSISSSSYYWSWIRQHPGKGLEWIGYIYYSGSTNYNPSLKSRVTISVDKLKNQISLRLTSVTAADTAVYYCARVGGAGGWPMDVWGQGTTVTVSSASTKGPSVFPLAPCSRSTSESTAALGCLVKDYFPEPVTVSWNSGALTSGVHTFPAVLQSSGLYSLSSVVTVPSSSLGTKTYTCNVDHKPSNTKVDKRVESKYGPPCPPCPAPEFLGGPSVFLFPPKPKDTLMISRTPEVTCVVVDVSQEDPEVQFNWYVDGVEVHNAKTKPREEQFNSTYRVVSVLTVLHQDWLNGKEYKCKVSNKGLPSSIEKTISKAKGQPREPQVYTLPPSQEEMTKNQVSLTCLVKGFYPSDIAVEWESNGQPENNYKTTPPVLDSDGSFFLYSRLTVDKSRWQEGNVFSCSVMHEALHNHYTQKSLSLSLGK
VL: QAVLTQPASLSASPGESARLTCTLPSDINVRYYNIYWYQQKPGSPPRYLLYYYSDSHKGQGSGVPSRFSGSKDVSTNSGILLISGLQSEDEADYYCMTWSSNGSGVFGGGTQLTVLG
notes: IgG4 S228P; VH T73K relative to X02.1

The remaining lines, values behind:

B1: X02.1 (antibody, human IgG4 S228P, lambda)
heavy: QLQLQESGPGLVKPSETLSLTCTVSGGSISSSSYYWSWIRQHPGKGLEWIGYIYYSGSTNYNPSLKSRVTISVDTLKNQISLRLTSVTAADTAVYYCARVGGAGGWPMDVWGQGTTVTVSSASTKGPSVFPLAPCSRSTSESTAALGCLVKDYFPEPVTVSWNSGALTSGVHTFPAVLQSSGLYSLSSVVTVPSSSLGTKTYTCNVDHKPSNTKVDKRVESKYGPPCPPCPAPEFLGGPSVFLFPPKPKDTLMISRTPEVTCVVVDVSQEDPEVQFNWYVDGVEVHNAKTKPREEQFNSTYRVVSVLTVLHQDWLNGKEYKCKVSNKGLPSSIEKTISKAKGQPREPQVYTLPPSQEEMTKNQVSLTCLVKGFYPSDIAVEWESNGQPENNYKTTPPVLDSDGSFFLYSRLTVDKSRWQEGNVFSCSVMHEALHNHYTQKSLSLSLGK
light: QAVLTQPASLSASPGESARLTCTLPSDINVRYYNIYWYQQKPGSPPRYLLYYYSDSHKGQGSGVPSRFSGSKDVSTNSGILLISGLQSEDEADYYCMTWSSNGSGVFGGGTQLTVLGQPKAAPSVTLFPPSSEELQANKATLVCLISDFYPGAVTVAWKADSSPVKAGVETTTPSKQSNNKYAASSYLSLTPEQWKSHRSYSCQVTHEGSTVEKTVAPTECS
notes: also called parental antibody X02.1; unfused form of A02.1 (X355/02)
Kd [1]: 0.378 to 27 nM

B2: A02.6 (wt. IFN) (antibody)
chain 1: QLQLQESGPGLVKPSETLSLTCTVSGGSISSSSYYWSWIRQHPGKGLEWIGYIYYSGSTNYNPSLKSRVTISVDTSKNQFSLKLSSVTAADTAVYYCARVGGAGGWPMDVWGQGTTVTVSS
chain 2: QAVLTQPASLSASPGESARLTCTLPSDINVRYYNIYWYQQKPGSPPRYLLYYYSDSHKGQGSGVPSRFSGSKDVSTNSGILLISGLQSEDIATYYCMTWSSNGSGVFGGGTQLTVLG
EC50; HEK-Blue IFN-alpha/β SEAP reporter (A630) on CD38-negative cells, the unit comes from the x axis 'IFN pM' [2]: 667 pM

B3: X02.8 (antibody, human IgG4 S228P)
heavy: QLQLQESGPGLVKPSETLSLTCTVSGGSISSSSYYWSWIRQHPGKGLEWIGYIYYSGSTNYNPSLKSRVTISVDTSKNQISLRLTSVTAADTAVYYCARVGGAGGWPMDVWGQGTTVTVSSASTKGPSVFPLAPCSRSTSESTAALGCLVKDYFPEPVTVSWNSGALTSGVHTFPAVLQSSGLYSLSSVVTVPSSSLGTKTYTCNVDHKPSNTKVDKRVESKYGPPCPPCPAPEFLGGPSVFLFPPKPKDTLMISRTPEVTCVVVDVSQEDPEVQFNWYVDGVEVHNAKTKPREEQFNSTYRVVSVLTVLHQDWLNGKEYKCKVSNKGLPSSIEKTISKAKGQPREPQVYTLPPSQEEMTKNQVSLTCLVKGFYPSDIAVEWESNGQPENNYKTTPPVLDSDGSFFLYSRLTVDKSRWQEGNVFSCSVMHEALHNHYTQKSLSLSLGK
VL: QAVLTQPASLSASPGESARLTCTLPSDINVRYYNIYWYQQKPGSPPRYLLYYYSDSHKGQGSGVPSRFSGSKDVSTNSGILLISGLQSEDEADYYCMTWSSNGSGVFGGGTQLTVLG
notes: IgG4 S228P; VH L74S relative to X02.1
EC50 [3]: 18.3 µg/mL | Kd [4]: 23 nM

B5: X02.71 (antibody, human IgG4 S228P)
heavy: not shown
VL: QAVLTQPASLSASPGESARLTCTLPSDINVRYYNIYWYQQKPGSPPRYLLYYYSDSHKGQGSGVPSRFSGSKDVSTNSGILLISGLQSEDEADYYCMTWSSNGSGVFGGGTQLTVLG
notes: IgG4 S228P; VH I29V relative to X02.1
Kd [7]: 0.129 nM

B12: X02.11 (antibody, human IgG4 S228P)
heavy: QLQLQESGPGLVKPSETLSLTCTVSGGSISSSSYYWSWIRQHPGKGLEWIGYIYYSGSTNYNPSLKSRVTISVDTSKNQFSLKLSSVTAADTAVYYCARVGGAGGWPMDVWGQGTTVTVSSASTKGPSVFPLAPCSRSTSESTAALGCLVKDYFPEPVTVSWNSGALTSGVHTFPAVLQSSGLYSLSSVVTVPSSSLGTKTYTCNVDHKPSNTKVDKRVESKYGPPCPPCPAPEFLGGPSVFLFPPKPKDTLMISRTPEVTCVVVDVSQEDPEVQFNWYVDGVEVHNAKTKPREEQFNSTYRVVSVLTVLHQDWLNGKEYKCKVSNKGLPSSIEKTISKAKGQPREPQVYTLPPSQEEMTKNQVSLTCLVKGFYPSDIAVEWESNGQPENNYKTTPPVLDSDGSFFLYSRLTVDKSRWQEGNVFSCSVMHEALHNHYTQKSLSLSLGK
VL: QAVLTQPASLSASPGESARLTCTLPSDINVRYYNIYWYQQKPGSPPRYLLYYYSDSHKGQGSGVPSRFSGSKDVSTNSGILLISGLQSEDEADYYCMTWSSNGSGVFGGGTQLTVLG
notes: IgG4 S228P; VH L74S, I78F, R81K, T(82A)S relative to X02.1
EC50 [3]: 18.1 µg/mL | Kd [4]: 23.9 nM

B17: X02.72 (antibody, human IgG4 S228P)
heavy: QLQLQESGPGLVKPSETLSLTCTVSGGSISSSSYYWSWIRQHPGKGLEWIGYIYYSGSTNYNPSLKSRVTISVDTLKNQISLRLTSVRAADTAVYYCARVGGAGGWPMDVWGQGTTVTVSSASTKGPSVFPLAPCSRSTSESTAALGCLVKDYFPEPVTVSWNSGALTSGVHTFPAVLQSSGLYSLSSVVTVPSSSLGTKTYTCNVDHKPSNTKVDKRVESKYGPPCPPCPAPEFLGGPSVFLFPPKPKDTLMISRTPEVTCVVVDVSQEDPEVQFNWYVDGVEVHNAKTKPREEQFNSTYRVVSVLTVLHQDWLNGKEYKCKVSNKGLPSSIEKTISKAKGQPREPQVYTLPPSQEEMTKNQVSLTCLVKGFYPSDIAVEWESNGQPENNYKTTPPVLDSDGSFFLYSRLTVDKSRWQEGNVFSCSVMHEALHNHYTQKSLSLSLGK
VL: QAVLTQPASLSASPGESARLTCTLPSDINVRYYNIYWYQQKPGSPPRYLLYYYSDSHKGQGSGVPSRFSGSKDVSTNSGILLISGLQSEDEADYYCMTWSSNGSGVFGGGTQLTVLG
notes: IgG4 S228P; VH T83R relative to X02.1
EC50 [12]: 3.6 µg/mL | Kd [13]: 1.63 nM

B18: X02.70 (antibody, human IgG4 S228P)
heavy: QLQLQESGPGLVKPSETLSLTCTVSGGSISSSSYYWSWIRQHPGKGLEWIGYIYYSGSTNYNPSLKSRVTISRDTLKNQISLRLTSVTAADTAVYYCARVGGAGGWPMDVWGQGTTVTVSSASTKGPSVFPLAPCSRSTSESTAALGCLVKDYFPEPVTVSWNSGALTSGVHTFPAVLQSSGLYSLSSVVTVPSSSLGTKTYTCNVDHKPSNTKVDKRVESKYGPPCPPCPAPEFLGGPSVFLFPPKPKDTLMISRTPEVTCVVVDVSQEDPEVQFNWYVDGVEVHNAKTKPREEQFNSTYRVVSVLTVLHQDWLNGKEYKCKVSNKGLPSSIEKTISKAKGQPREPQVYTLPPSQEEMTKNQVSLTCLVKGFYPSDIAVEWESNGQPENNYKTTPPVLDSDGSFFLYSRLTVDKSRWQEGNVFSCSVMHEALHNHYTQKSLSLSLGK
VL: QAVLTQPASLSASPGESARLTCTLPSDINVRYYNIYWYQQKPGSPPRYLLYYYSDSHKGQGSGVPSRFSGSKDVSTNSGILLISGLQSEDEADYYCMTWSSNGSGVFGGGTQLTVLG
notes: IgG4 S228P; VH V71R relative to X02.1
EC50 [12]: 7.2 µg/mL | Kd [13]: 3.54 nM

B19: X02.73 (antibody, human IgG4 S228P)
heavy: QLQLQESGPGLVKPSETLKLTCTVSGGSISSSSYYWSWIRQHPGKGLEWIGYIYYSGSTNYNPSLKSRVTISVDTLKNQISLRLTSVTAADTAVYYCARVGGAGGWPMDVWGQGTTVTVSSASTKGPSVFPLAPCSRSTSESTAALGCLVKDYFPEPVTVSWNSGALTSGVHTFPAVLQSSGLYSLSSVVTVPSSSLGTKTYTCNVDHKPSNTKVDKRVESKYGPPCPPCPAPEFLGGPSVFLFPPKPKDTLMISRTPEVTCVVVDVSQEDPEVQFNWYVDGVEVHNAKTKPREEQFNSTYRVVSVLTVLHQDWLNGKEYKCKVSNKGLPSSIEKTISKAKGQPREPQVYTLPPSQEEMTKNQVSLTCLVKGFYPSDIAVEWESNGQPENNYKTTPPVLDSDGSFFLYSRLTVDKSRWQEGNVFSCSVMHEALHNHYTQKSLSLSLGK
VL: QAVLTQPASLSASPGESARLTCTLPSDINVRYYNIYWYQQKPGSPPRYLLYYYSDSHKGQGSGVPSRFSGSKDVSTNSGILLISGLQSEDEADYYCMTWSSNGSGVFGGGTQLTVLG
notes: IgG4 S228P; VH S19K relative to X02.1
EC50 [12]: 4.3 µg/mL | Kd [13]: 0.385 nM
